Molecular target: T1, ACE2-ECD-sFc fusion protein (Homo sapiens)
T1 construct: also called ACE2-sFc; ACE ECD-sFc
Experiment: ELISA, plate coated with ACE2 ECD-sFc

B1: HRP alone (enzyme, UniProt P00433 31-338, looked up)
chain: QLTPTFYDNSCPNVSNIVRDTIVNELRSDPRIAASILRLHFHDCFVNGCDASILLDNTTSFRTEKDAFGNANSARGFPVIDRMKAAVESACPRTVSCADLLTIAAQQSVTLAGGPSWRVPLGRRDSLQAFLDLANANLPAPFFTLPQLKDSFRNVGLNRSSDLVALSGGHTFGKNQCRFIMDRLYNFSNTGLPDPTLNTTYLQTLRGLCPLNGNLSALVDFDLRTPTIFDNKYYVNLEEQKGLIQSDQELFSSPNATDTIPLVRSFANSTQTFFNAFVEAMDRMGNITPLTGTQGQIRLNCRVVNSNS
notes: also called HPR alone; control tracer
Question: Does B1 bind?
Answer: no binding

— patent publication US20230109393A1 (UNITED BIOMEDICAL, published 2023)
